According to paper PMC5849677 (2018):

Legend:
Experiment in all cases: SPR
[1] = target: native hC3d (containing 9th cysteine)-Fc (human, UniProt P01024 1001-1303)
hC3dg (aa 955-1303)-Fc = hC3dg (aa 955-1303)-Fc (human, UniProt P01024 955-1303)
[2] = target: hC3d(s)-Fc (Cys to Ser variant of hC3d-Fc) (human, UniProt P01024 1001-1303)
Sequence of hC3d(s)-Fc (Cys to Ser variant of hC3d-Fc) (P01024 other isoform, or with tags, fused parts or gaps mutant): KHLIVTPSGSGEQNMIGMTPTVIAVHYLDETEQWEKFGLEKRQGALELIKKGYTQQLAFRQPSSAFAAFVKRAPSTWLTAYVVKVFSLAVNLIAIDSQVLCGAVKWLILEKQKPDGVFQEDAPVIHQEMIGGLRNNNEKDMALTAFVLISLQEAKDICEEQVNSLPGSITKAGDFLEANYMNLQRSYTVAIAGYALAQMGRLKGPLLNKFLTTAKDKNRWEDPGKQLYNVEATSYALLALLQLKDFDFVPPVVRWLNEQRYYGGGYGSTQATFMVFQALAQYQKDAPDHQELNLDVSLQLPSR

Sequence of hC3dg (aa 955-1303)-Fc (P01024 955-1303): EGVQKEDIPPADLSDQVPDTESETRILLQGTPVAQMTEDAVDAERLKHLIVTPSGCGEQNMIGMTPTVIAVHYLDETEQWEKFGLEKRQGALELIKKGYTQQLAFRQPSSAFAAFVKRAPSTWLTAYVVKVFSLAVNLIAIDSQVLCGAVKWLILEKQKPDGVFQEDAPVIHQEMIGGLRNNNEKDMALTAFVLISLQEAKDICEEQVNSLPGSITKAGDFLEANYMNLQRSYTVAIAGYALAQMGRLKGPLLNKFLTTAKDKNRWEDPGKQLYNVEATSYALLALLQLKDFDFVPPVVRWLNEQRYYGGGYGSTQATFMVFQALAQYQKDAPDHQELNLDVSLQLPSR
Sequence of native hC3d (containing 9th cysteine)-Fc (P01024 1001-1303): as the sequence (P01024 other isoform, or with tags, fused parts or gaps mutant) above, with S10C counted along it

B1: hCR2 (SCR1-4)-Fc (Fc fusion)
chain: ISCGSPPPILNGRISYYSTPIAVGTVIRYSCSGTFRLIGEKSLLCITKDKVDGTWDKPAPKCEYFNKYSSCPEPIVPGGYKIRGSTPYRHGDSVTFACKTNFSMNGNKSVWCQANNMWGPTRLPTCVSVFPLECPALPMIHNGHHTSENVGSIAPGLSVTYSCESGYLLVGEKIINCLSSGKWSAVPPTCEEARCKSLGRFPNGKVKEPPILRVGVTANFFCDEGYRLQGPPSSRCVIAGQGVAWTKMPVCEE
Kd [1]: 5.18 nM | Kd (hC3dg (aa 955-1303)-Fc): 3.17 nM | Kd [2]: 7.66 nM
